Starred links: 1 amine or outer side, 2 acyl side, 3 side chain; linkers in the order of their positions; H or OH if unused. Positions of bridges follow the written chain, without caps; N, C: chain ends. Non-standard residues stand in square brackets, D forms with d. No end group written: not given here. 1Nal = N[C@@H](Cc1cccc2ccccc12)C(=O)O; TBMB = c1c(C[*:1])cc(C[*:3])cc1C[*:2]; hArg = N=C(N)NCCCC[C@H](N)C(=O)O; Tle = CC(C)(C)[C@H](N)C(=O)O; Aib = CC(C)(N)C(=O)O; βAla = NCCC(=O)O; Sar = CNCC(=O)O
Tests used:
[1] = target: T1, Human EphA2 (Ecto), C-terminal polyHis (Human, UniProt P29317 24-537); assay: fluorescence polarisation competition; competitor fluorescent Compound 66
T1 construct: extracellular domain; also called EPH receptor A2; ephrin type-A receptor 2
Protocol: (§1) Peptides without a fluorescent tag were tested in competition with a peptide with a fluorescent tag and a known Kd (Table 2). Peptides were diluted to an appropriate concentration in assay buffer as described in the direct binding assay with a maximum of 5% DMSO, then serially diluted 1 in 2. […] Measurements were conducted as for the direct binding assay, however the gain was determined prior to the first measurement. Data analysis was in Systat Sigmaplot version 12.0 where the mP values were fit to a user defined cubic equation to generate a Ki value: […]

[2] = target: T1, Human EphA2 (Ecto), C-terminal polyHis; assay: fluorescence polarisation competition; competitor fluorescent Compound 18
Protocol: as §1

[3] = target: Human EphA2 (Ecto) (Human) (UniProt P29317); assay: FP competition, tracer Compound 18
Human EphA2 (Ecto) (Human), sequence (P29317 24-537): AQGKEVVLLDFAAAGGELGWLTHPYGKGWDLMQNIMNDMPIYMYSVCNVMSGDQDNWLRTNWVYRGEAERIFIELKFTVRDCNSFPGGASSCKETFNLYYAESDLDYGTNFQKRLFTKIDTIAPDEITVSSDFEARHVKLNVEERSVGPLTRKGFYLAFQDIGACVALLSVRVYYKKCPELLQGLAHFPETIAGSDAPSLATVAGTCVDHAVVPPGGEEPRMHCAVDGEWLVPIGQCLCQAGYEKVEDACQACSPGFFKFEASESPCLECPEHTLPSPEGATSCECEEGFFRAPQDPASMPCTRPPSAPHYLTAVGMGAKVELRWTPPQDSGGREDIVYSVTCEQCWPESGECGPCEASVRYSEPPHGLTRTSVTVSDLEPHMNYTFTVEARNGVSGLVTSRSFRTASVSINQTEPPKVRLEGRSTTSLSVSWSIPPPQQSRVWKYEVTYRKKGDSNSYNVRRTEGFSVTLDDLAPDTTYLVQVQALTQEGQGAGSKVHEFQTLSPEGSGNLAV

T1 sequence (P29317 24-537): as above

Row | Binder | Ki [1] | Ki [2] | Ki [3]
1 | ADVHCPWGPFWCPVNRPGCA (linker 5-12-19 via TBMB (inferred), also called Compound 57) [Bicycle Compound Number 57 (TBMB scaffold)] | 1.2 nM | 0.48 nM | 
2 | AEGLPCPWGPFWCPVNRPGCA (linker 6-13-20 via TBMB (inferred), also called Compound 55) [Bicycle Compound Number 55 (TBMB scaffold)] | 6.15 nM | 11.3 nM | 
3 | [βAla][Sar][Sar][Sar][Sar][Sar][Sar][Sar][Sar][Sar][Sar]H[dD]VPC[Aib][1Nal]G[Aib]F[1Nal]CP[Tle]N[hArg][Aib][dD]C (linker 16-23-30 via TBMB) [Bicycle Compound 238] |  |  | 2.83 nM
4 | [Sar][Sar]ACP[1Nal]GPFWCPV[dA]RPGC (linker 4-11-18 via TBMB, also called Sar2-ACP(1Nal)GPFWCPV(D-Ala)RPGC) [Bicycle Compound Number 115 (TBMB scaffold)] | 1.64 nM | 12.5 nM | 
5 | [Sar][Sar]ACP[1Nal]GPFWCPVNRP[dA]C (linker 4-11-18 via TBMB) [Bicycle Compound Number 116 (TBMB scaffold)] | 3.2 nM | 2.95 nM | 
6 | [βAla][Sar][Sar][Sar][Sar][Sar][Sar][Sar][Sar][Sar][Sar]H[dD]VPC[Aib][1Nal]G[Aib]FWCP[Tle]N[hArg]P[dD]C (linker 16-23-30 via TBMB) [Bicycle Compound 242] |  |  | 7.77 nM
7 | [βAla][Sar][Sar][Sar][Sar][Sar][Sar][Sar][Sar][Sar][Sar]H[dD]VPC[Aib][1Nal]GP[hArg][1Nal]CP[Tle]NR[Aib]GC (linker 16-23-30 via TBMB) [Bicycle Compound 243] |  |  | 2.83 nM
8 | [βAla][Sar][Sar][Sar][Sar][Sar][Sar][Sar][Sar][Sar][Sar]H[dD]VPC[Aib][1Nal]G[Aib]F[1Nal]CP[Tle]NRPGC (linker 16-23-30 via TBMB) [Bicycle Compound 234] |  |  | 3.94 nM
9 | Ac-[Sar][Sar]A[dD]VTCP[1Nal]G[Aib]F[1Nal]CP[Tle]N[hArg]P[dD]C (linker 7-14-21 via TBMB) [Bicycle Compound 184] |  |  | 1.19 nM
10 | [Sar][Sar]AC[Aib][1Nal]GPFWCPVNRPGC (linker 4-11-18 via TBMB) [Bicycle Compound Number 113 (TBMB scaffold)] | 6.6 nM | 10 nM | 
11 | [βAla][Sar][Sar][Sar][Sar][Sar][Sar][Sar][Sar][Sar][Sar]H[dD]VPC[Aib][1Nal]G[Aib]F[1Nal]CP[Tle]NR[Aib]GC (linker 16-23-30 via TBMB) [Bicycle Compound 239] |  |  | 4.91 nM
12 | Ac-[Sar][Sar]A[dD]VTCP[1Nal]G[Aib]F[1Nal]CP[Tle]N[hArg]PGC (linker 7-14-21 via TBMB) [Bicycle Compound 182] |  |  | 1.16 nM
13 | Ac-[Sar][Sar]A[dD]VTCP[1Nal]G[Aib]F[1Nal]CP[Tle]NR[Aib]GC (linker 7-14-21 via TBMB) [Bicycle Compound 183] |  |  | 1.02 nM
14 | [βAla][Sar][Sar][Sar][Sar][Sar][Sar][Sar][Sar][Sar][Sar]H[dD]VPC[Aib][1Nal]G[Aib]F[1Nal]CP[Tle]N[hArg]PGC (linker 16-23-30 via TBMB) [Bicycle Compound 235] |  |  | 2.58 nM
15 | [Sar][Sar]ACP[1Nal]GPFWCP[Tle]NRPGC (linker 4-11-18 via TBMB, also called Sar2-ACP(1Nal)GPFWCP(tBuGly)NRPGC) [Bicycle Compound Number 121 (TBMB scaffold)] | 2 nM | 3.65 nM | 
16 | [βAla][Sar][Sar][Sar][Sar][Sar][Sar][Sar][Sar][Sar][Sar]H[dD]VPC[Aib][1Nal]GP[hArg][1Nal]CP[Tle]N[hArg]P[dD]C (linker 16-23-30 via TBMB) [Bicycle Compound 244] |  |  | 2.8 nM
17 | Ac-[Sar][Sar]A[dH]DVPCP[1Nal]G[Aib]F[1Nal]CP[Tle]N[hArg]PGC (linker 8-15-22 via TBMB) [Bicycle Compound 231] |  |  | 1.93 nM
18 | Ac-[Sar][Sar]A[dH]DVPCP[1Nal]G[Aib]F[1Nal]CP[Tle]NR[Aib]GC (linker 8-15-22 via TBMB) [Bicycle Compound 232] |  |  | 0.9 nM
19 | [Sar][Sar]ACP[1Nal]GPFWCPVN[hArg]PGC (linker 4-11-18 via TBMB, also called Compound 122) [Bicycle Compound Number 122 (TBMB scaffold)] | 8 nM | 9.55 nM | 

Continued, values first:

Row | Ki [1] | Ki [2] | Ki [3] | Binder
20 | 46 nM | 63 nM |  | [Sar][Sar]ACPWG[Aib]F[1Nal]CPVNRPGC (linker 4-11-18 via TBMB) [Bicycle Compound Number 123 (TBMB scaffold)]
21 | 19 nM | 15 nM |  | [Sar][Sar]ACP[1Nal]G[Aib]FWCP[Tle]NRPGC (linker 4-11-18 via TBMB, also called Sar2-ACP(1Nal)G(Aib)FWCP(tBuGly)NRPGC) [Bicycle Compound Number 126 (TBMB scaffold)]
22 | 6.8 nM | 11 nM |  | [Sar][Sar]ACP[1Nal]GPFWCP[Tle]NR[Aib]GC (linker 4-11-18 via TBMB, also called Sar2-ACP(1Nal)GPFWCP(tBuGly)NR(Aib)GC) [Bicycle Compound Number 131 (TBMB scaffold)]
23 | 0.61 nM | 6.4 nM |  | [Sar][Sar]AC[Aib][1Nal]GPFWCPVNRP[dA]C (linker 4-11-18 via TBMB) [Bicycle Compound Number 125 (TBMB scaffold)]
24 | 33 nM | 40 nM |  | [Sar][Sar]ACP[1Nal]G[Aib]FWCPV[dA]RPGC (linker 4-11-18 via TBMB, also called Sar2-ACP(1Nal)G(Aib)FWCPV(D-Ala)RPGC) [Bicycle Compound Number 127 (TBMB scaffold)]
25 | 16 nM | 15 nM |  | [Sar][Sar]ACP[1Nal]G[Aib]FWCPVNRP[dA]C (linker 4-11-18 via TBMB) [Bicycle Compound Number 128 (TBMB scaffold)]
26 | 0.98 nM | 1.4 nM |  | [Sar][Sar]ACP[1Nal]GPF[1Nal]CPVNRPGC (linker 4-11-18 via TBMB, also called Compound 120) [Bicycle Compound Number 120 (TBMB scaffold)]
27 | 15 nM | 23 nM |  | [Sar][Sar]ACP[1Nal]GPFWCP[Tle][dA]RPGC (linker 4-11-18 via TBMB, also called Sar2-ACP(1Nal)GPFWCP(tBuGly)(D-Ala)RPGC) [Bicycle Compound Number 129 (TBMB scaffold)]
28 | 8.7 nM | 7.7 nM |  | [Sar][Sar]ACP[1Nal]GPFWCP[Tle]NRP[dA]C (linker 4-11-18 via TBMB, also called Sar2-ACP(1Nal)GPFWCP(tBuGly)NRP(D-Ala)C) [Bicycle Compound Number 132 (TBMB scaffold)]
29 | 3.7 nM | 14 nM |  | [Sar][Sar]ACP[1Nal]GPFWCPV[dA][hArg]PGC (linker 4-11-18 via TBMB, also called Sar2-ACP(1Nal)GPFWCPV(D-Ala)(HArg)PGC) [Bicycle Compound Number 133 (TBMB scaffold)]
30 | 6.15 nM | 1.2 nM |  | [Sar][Sar]ACP[1Nal]GPFWCPVN[hArg]P[dA]C (linker 4-11-18 via TBMB) [Bicycle Compound Number 134 (TBMB scaffold)]
